This note sets out measurements from patent US20100305031A1 (Daiichi Sankyo, published 2010).

The target in the assay is human type recombinant neutral endopeptidase (hNEP, manufactured by R&D Systems, Inc., U.S.A.) (human, UniProt P08473 52-750). The assay is described as follows: cell-based or functional assay.

Bridges are numbered along the chain shown (N, C = ends). Where no end group is shown, it is not given here.

Chain of human type recombinant neutral endopeptidase (hNEP, manufactured by R&D Systems, Inc., U.S.A.) (P08473 52-750 limits assumed): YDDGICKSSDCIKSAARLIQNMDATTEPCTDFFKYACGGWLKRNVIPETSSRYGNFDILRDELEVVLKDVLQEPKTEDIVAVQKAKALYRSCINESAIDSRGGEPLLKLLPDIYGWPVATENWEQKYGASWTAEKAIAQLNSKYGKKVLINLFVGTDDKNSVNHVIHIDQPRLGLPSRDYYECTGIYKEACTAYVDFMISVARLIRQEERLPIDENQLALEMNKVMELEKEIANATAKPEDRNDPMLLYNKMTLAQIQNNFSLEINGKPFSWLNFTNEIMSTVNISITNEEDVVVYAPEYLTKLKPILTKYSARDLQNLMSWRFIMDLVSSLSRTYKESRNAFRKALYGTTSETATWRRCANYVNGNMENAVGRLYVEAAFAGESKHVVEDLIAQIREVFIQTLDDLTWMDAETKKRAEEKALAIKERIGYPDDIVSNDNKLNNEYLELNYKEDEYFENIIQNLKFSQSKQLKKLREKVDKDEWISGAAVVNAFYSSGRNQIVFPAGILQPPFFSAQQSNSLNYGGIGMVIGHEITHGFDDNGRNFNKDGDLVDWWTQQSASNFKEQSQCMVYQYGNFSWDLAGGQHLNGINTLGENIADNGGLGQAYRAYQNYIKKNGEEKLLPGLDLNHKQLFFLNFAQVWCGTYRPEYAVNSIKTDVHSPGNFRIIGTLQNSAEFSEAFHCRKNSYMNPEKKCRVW

Turning to CFGLKLDRIGSMSGLGCVQQRKESKKPPAKLQPR (disulfide 1-17 (inferred)) [Chimeric CNP (B)], the “Residual Rate (%) of the unchanged peptide after 1 hour at 37° C. with hNEP (HPLC)” value was 83.8%.
On to RPQLKAPPKKSEKRQQVCFGLKLDRIGSMSGLGC (disulfide 18-34 (inferred)) [Chimeric CNP (A)], for which the “Residual Rate (%) of the unchanged peptide after 1 hour at 37° C. with hNEP (HPLC)” value amounted to 84.3%.
Turning to GLSKGCFGLKLDRIGSMSGLGC (disulfide 6-22) [Native CNP-22], the “Residual Rate (%) of the unchanged peptide after 1 hour at 37° C. with hNEP (HPLC)” value stood at 16.7%.
